Publication PMC12439769, “Case of Nisin Oral Ingestion and its LC-MS/MS Detection in Human Urine Over Time: A Case Report” (Archives of clinical and medical case reports, 2025)
No end group written: not given here.

Columns and labels:
[1] = tested on: gastrointestinal epithelial and vascular endothelial cells; conditions: in vitro; ref 35 (Dreyer et al.); cited from earlier work
Description: (§1) Nisin mediates its action in part by interactions with phospholipid bilayers on cellular membranes. Prior pharmacokinetic and pharmacodynamic information indicate that nisin can be absorbed via epithelial tissues. Nisin can be absorbed through the vaginal epithelium into the circulation following intravaginal administration in rabbits. Maximum levels of nisin were detected in blood samples after 1 h of treatment. […] Further, Dreyer et al. reported the migration of nisin a ...

[2] = cited from earlier work
Description: as §1

[3] = Western blotting of nisin in urine samples after oral ingestion; format: in vivo, human
Description: (§2) Nisin ZP (Handary S.A; Brussels, Belgium) was ingested by a healthy volunteer. […] Sterile urine was then collected at 4 pm (Sample 1) and 8 pm (Sample 2) on the first day of ingestion, and at 6 am (Sample 3), 8 am (Sample 4), 3:30 pm (Sample 5), and 9 pm (Sample 6) the next day. Urine samples were frozen at −80°C immediately upon collection (Table 1).
The urine samples were filtered using a 10 kDa MWCO Amicon® ultra centrifugal filter (Cat No: UFC201024, Millipore). The filtrate was used to analyze nisin, while the top retained fraction was used to check for potential nisin-binding proteins that might bind to and shift nisin to a higher molecular weight.
Western blot analyses were performed on the filtrate and top fractions from the urine samples to detect nisin and nisin binding proteins, respectively. Samples were normalized by equal protein concentration (125 μg) and then mixed with 4X Laemmli sample buffer (Cat. No. 1610747, Bio-Rad) containing β-ME (3:1). The proteins were resolved by 16% Tricine SDS-PAGE (Invitrogen, Cat No. EC6695) then transferred to Immobilon-P membranes. The blots were probed with a custom polyclonal affinity-purified rabbit nisin antibody (proprietary to Kapila lab). The antibody against nisin was produced by co-immunizing rabbits with four short nisin peptide sequences (Pacific Immunology, Ramona, CA). Blots were incubated with horseradish peroxidase-conjugated anti-rabbit antibody (SC-2004, Santa Cruz Biotechnology) and then developed with the ECL-plus detection system (Thermo Fisher Scientific).

[4] = Tolerability of oral ingestion of nisin; format: in vivo, human; conditions: 20 grams in total, two doses of 10 grams/150 ml of water at noon and 6 pm; one healthy person
Description: as §2

[5] = oral ingestion, encapsulated nisin and nisin powder groups, at 24, 48 and 72 hours; mass spectrometry; cited from earlier work
From the text: Like other reports of nisin detection with LC-MS/MS, this project employed similar methods to successfully detect nisin and its fragments in urine samples [44–49]. The ongoing clinical trial (ClinicalTrials.gov; NCT06097468) of nisin in oral cancer patients and studies with larger sample sizes will be helpful to furthe ...

[6] = LC-MS/MS (PRM) detection of nisin in human urine after oral ingestion; format: in vivo
Description: as §2
Six urine samples, including both standard and nisin-spiked samples, were thawed/prepared then centrifuged at 4000×g to pellet large solute materials/proteins. The supernatant from each sample was then filtered using a 10 kDa MWCO Amicon® Ultra Centrifugal Filter to further remove larger protein molecules. The filtered urine was lyophilized under stringent conditions (−50 °C and 0.1 Torr) for 48 hours to ensure complete dryness. The lyophilized cake was resuspended in 0.1% Trifluoroacetic Acid (TFA) for sample homogenization. A subsequent centrifugation step at 12000×g for 5 minutes allowed for the separation of any remaining particulate matter, with the supernatant being carefully transferred into a clean tube. The supernatant underwent desalting using C18 Stage Tips, which were prepared by equilibration in 1% TFA and 50% Acetonitrile (ACN), followed by a washing solution of 5% ACN and 0.1% TFA, and an elution in 40% ACN with 0.1% TFA. The peptides eluted were vacuum dried and then resuspended in 5% Formic Acid (FA).
Nisin peptide abundance was measured using liquid chromatography coupled to mass spectrometry (LC-MS/MS). After reconstitution in formic acid, the samples were fractionated online by C18 reversed phase chromatography using a Dionex U3000 HPLC to deliver an increasing gradient of acetonitrile. Peptides were eluted and electrosprayed directly in a Thermofisher Fusion Lumos mass spectrometer. Data were acquired using a parallel reaction monitoring strategy in which the +5 precursor ion of full-length nisin was analyzed by MS/MS [51]. The precursor and fragment ion masses for +5 charge state of nisin utilized for Parallel Reaction Monitoring are shown in Table 2. Extracted ion chromatograms were generated for each fragment ion using the Skyline software package. The area under the curve for each fragment ion was summed to calculate an estimate of nisin abundance.

[7] = rabbits, intravaginal administration

**Q.** Which results are given for “Nisin ZP: Natural bacteriocin made by Lactococcus lactis, food preservative; Nisin ZP from Handary S.A, Brussels, Belgium (ITSISLCTPGCKTGALMGCNMKTATCNCSIHVSK; also: lantibiotic nisin-Z: thioether rings and dehydro residues not placed; UniProt P29559 24-57, looked up)”?
**A.** Migration across gastrointestinal epithelial and vascular endothelial cells [1]: migration of nisin across gastrointestinal epithelial and vascular endothelial cells; Stability in the harsh conditions of the gastric environment [2]: partially stable; Time at which blood levels declined to baseline [2, 7]: 12 h; Time of maximum levels of nisin in blood samples [2, 7]: 1 h; Nisin detection in urine samples 2 through 6 by immunoblotting ([3]; <10 kDa filtrate, urine 8–33 h after first ingestion, anti-nisin rabbit polyclonal antibody): did not detect; Nisin detection at approximately 3.3 kDa in urine sample 1 by immunoblotting ([3]; <10 kDa filtrate, urine 4 h after first ingestion, anti-nisin rabbit polyclonal antibody, 16% Tricine SDS-PAGE): detected; High molecular weight nisin-positive band at approximately 40 kDa in urine sample 1 ([3]; >10 kDa retained fraction, urine 4 h after first ingestion, suggests a potential nisin-binding protein): nisin-positive band; Tolerability of oral ingestion [4]: well tolerated without any adverse events; Integrity of nisin passing through the porcine gastrointestinal tract [5]: remains intact; Time of maximal nisin levels detected in urine ([6]; after first oral 10 g dose, LC-MS/MS, earliest sample collected at 4 h, n = 1 subject): 4 h; Nisin detection in urine samples 1–4 by LC-MS/MS ([6]; one healthy person, oral 2 x 10 g/150 ml water at noon and 6 pm, urine 4, 8, 18, 20 h after first ingestion, 10 kDa MWCO filtrate, lyophilized, C18 desalted, PRM of +5 precursor, summed fragment AUC): detected; Time window of nisin detection in urine after the first ingestion ([6]; oral 10 g/150 ml at noon, second 10 g at 6 pm, LC-MS/MS, n = 1 subject, no urine collected before 4 h): 4 to 20 h; Nisin detection in urine samples 5–6 by LC-MS/MS ([6]; same subject and regimen, urine 27.5 and 33 h after first ingestion (21.5 and 27 h after second), PRM of +5 precursor): not; Time of nisin detection in urine after the second ingestion ([6]; second oral 10 g/150 ml dose at 6 pm, LC-MS/MS, n = 1 subject): up to 14 hours
